# Measured values taken from paper PMC9352680, “A comprehensive thermodynamic model for RNA binding by the Saccharomyces cerevisiae Pumilio protein PUF4”.
# T1: PUF4 RNA-binding domain (Saccharomyces cerevisiae, UniProt P25339 537-888)
# T1 sequence: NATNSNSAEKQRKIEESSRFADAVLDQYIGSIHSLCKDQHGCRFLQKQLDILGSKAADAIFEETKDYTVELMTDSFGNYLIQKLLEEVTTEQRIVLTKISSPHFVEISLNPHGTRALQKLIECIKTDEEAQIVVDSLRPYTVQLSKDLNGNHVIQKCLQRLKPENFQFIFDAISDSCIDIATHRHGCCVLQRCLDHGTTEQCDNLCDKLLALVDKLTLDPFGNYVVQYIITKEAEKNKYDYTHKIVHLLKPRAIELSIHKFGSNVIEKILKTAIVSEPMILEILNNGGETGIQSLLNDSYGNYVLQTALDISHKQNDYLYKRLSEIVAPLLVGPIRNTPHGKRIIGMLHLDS
# B1: Id_ii_S1_P4E.4_K4.3_C4.2_[C-2G]_[T-1C]_H4.3_A4.1_F4.1_T4.2_[G10T] (ssRNA)
# RNA: UCUCUUGCACACUAUUAUUUCUCUU
# B2: Id_ii_S1_P4E.4_K4.3_C4.2_[C-2G]_[T-1C]_H4.3_A4.1_F4.1_T4.2_[G10C] (ssRNA)
# RNA: UCUCUUGCACACUAUUACUUCUCUU
# B3: Id_ii_S1_P4E.4_K4.3_C4.2_[C-2G]_H4.3_A4.1_F4.1_T4.2_[G10A]_[T11C] (ssRNA)
# RNA: UCUCUUGUACACUAUUAACUCUCUU
# B4: Id_ii_S1_P4E.3_K4.2_C4.2_[T-1C]_H4.2_A4.1_F4.1_T4.2_[G10A]_[T11G] (ssRNA)
# RNA: UCUCUUCCUAUAUAUUAAGUCUCUU
# B5: Id_ii_S1_P4E.3_K4.2_C4.2_[T-1A]_H4.2_A4.1_F4.1_T4.2_[G10T] (ssRNA)
# RNA: UCUCUUCAUAUAUAUUAUUUCUCUU
# B6: Id_ii_S1_P4E.3_K4.2_C4.2_[T-1C]_H4.2_A4.1_F4.1_T4.2_[G10T] (ssRNA)
# RNA: UCUCUUCCUAUAUAUUAUUUCUCUU
# B7: Id_ii_S1_P4E.3_K4.2_C4.2_H4.2_A4.1_F4.1_T4.2_[G10C]_[T11G] (ssRNA)
# RNA: UCUCUUCUUAUAUAUUACGUCUCUU
# B8: Ib_S1_P4E.1_K4.1_C4.1_H4.1_[A4T]_A4.1_[T7G]_F4.1_T4.1 (ssRNA)
# RNA: UCUCUUUGUUUAGUAUCUCUU
# B9: Id_ii_S1_P4E.4_K4.3_C4.2_[C-2G]_[T-1C]_H4.3_A4.1_F4.1_T4.2 (ssRNA)
# RNA: UCUCUUGCACACUAUUAGUUCUCUU
# B10: Id_ii_S1_P4E.3_K4.2_C4.2_H4.2_A4.1_F4.1_T4.2_[G10T]_[T11C] (ssRNA)
# RNA: UCUCUUCUUAUAUAUUAUCUCUCUU
# B11: Id_ii_S1_P4E.4_K4.3_C4.2_[C-2G]_H4.3_A4.1_F4.1_T4.2_[G10A]_[T11A] (ssRNA)
# RNA: UCUCUUGUACACUAUUAAAUCUCUU
# B12: Id_ii_S1_P4E.4_K4.3_C4.2_[C-2G]_H4.3_A4.1_F4.1_T4.2_[T11C] (ssRNA)
# RNA: UCUCUUGUACACUAUUAGCUCUCUU
# B13: Id_ii_S1_P4E.4_K4.3_C4.2_[C-2G]_[T-1C]_H4.3_A4.1_F4.1_T4.2_[G10T]_[T11A] (ssRNA)
# RNA: UCUCUUGCACACUAUUAUAUCUCUU
# B14: Ia_S1_P3E.1_K3.1_C3.1_H3.1_A3.1_F3.1_[A8C]_T3.1 (ssRNA)
# RNA: UCUCUUUGUAUAUCUCUCUU
# B15: Id_ii_S1_P4E.3_K4.2_C4.2_[T-1C]_H4.2_A4.1_F4.1_T4.2_[G10C] (ssRNA)
# RNA: UCUCUUCCUAUAUAUUACUUCUCUU
# B16: Id_ii_S1_P4E.4_K4.3_C4.2_[C-2T]_[T-1G]_H4.3_A4.1_F4.1_T4.2_[G10C] (ssRNA)
# RNA: UCUCUUUGACACUAUUACUUCUCUU
# B17: Ia_S1_P5E.1_K5.1_C5.1_H5.1_A5.1_F5.1_[T8C]_T5.1 (ssRNA)
# RNA: UCUCUUUGUAUUACUAUCUCUU
# B18: Ib_S1_P4E.1_K4.1_C4.1_H4.1_[A4G]_A4.1_[T7A]_F4.1_T4.1 (ssRNA)
# RNA: UCUCUUUGUGUAAUAUCUCUU
# B19: Id_ii_S1_P4E.4_K4.3_C4.2_[C-2T]_[T-1G]_H4.3_A4.1_F4.1_T4.2_[G10T]_[T11C] (ssRNA)
# RNA: UCUCUUUGACACUAUUAUCUCUCUU
# B20: Id_ii_S1_P4E.4_K4.3_C4.2_[C-2G]_H4.3_A4.1_F4.1_T4.2_[G10C]_[T11C] (ssRNA)
# RNA: UCUCUUGUACACUAUUACCUCUCUU
# B21: Id_ii_S1_P4E.3_K4.2_C4.2_[T-1A]_H4.2_A4.1_F4.1_T4.2_[T11G] (ssRNA)
# RNA: UCUCUUCAUAUAUAUUAGGUCUCUU
# B22: Id_ii_S1_P4E.4_K4.3_C4.2_[C-2T]_[T-1G]_H4.3_A4.1_F4.1_T4.2_[G10C]_[T11C] (ssRNA)
# RNA: UCUCUUUGACACUAUUACCUCUCUU
# B23: Id_ii_S1_P4E.3_K4.2_C4.2_H4.2_A4.1_F4.1_T4.2_[G10T]_[T11G] (ssRNA)
# RNA: UCUCUUCUUAUAUAUUAUGUCUCUU
# B24: Id_ii_S1_P4E.3_K4.2_C4.2_[T-1C]_H4.2_A4.1_F4.1_T4.2_[G10T]_[T11A] (ssRNA)
# RNA: UCUCUUCCUAUAUAUUAUAUCUCUU
# B25: Id_ii_S1_P4E.3_K4.2_C4.2_H4.2_A4.1_F4.1_T4.2_[G10A] (ssRNA)
# RNA: UCUCUUCUUAUAUAUUAAUUCUCUU
# B26: Id_ii_S1_P4E.4_K4.3_C4.2_[C-2G]_[T-1C]_H4.3_A4.1_F4.1_T4.2_[G10T]_[T11C] (ssRNA)
# RNA: UCUCUUGCACACUAUUAUCUCUCUU
# B27: Id_ii_S1_P4E.3_K4.2_C4.2_[T-1A]_H4.2_A4.1_F4.1_T4.2_[G10C]_[T11A] (ssRNA)
# RNA: UCUCUUCAUAUAUAUUACAUCUCUU
# B28: Id_ii_S1_P4E.3_K4.2_C4.2_[T-1A]_H4.2_A4.1_F4.1_T4.2_[G10T]_[T11C] (ssRNA)
# RNA: UCUCUUCAUAUAUAUUAUCUCUCUU
# B29: Id_ii_S1_P4E.4_K4.3_C4.2_[C-2G]_H4.3_A4.1_F4.1_T4.2 (ssRNA)
# RNA: UCUCUUGUACACUAUUAGUUCUCUU
# B30: Id_ii_S1_P4E.3_K4.2_C4.2_[T-1C]_H4.2_A4.1_F4.1_T4.2_[G10T]_[T11C] (ssRNA)
# RNA: UCUCUUCCUAUAUAUUAUCUCUCUU
# B31: Id_ii_S1_P4E.3_K4.2_C4.2_[T-1C]_H4.2_A4.1_F4.1_T4.2_[G10A] (ssRNA)
# RNA: UCUCUUCCUAUAUAUUAAUUCUCUU
# Biological target: T1, PUF4 RNA-binding domain
# Experiment: Mg; RNA-MaP; 20 mM Na-HEPES pH 7.4, 30 mM KOAc, 0.75 mM MgCl2, 0.1% Tween-20, 5% glycerol, 0.1 mg/mL BSA, 2 mM DTT; 25 C; 0.0125-409.6 nM protein
# Conditions: tags: N-His6-TEV cleaved; C-SNAP kept, Cy3B-labelled; label: tethered on chip by stalled RNA polymerase
row,Binder,Kd
1,B1,71 nM
2,B2,74.1 nM
3,B3,0.968 nM
4,B4,87.6 nM
5,B5,21.2 nM
6,B6,26.9 nM
7,B7,16.6 nM
8,B8,24.4 nM
9,B9,347 nM
10,B10,13.9 nM
11,B11,0.983 nM
12,B12,0.962 nM
13,B13,351 nM
14,B14,14.8 nM
15,B15,20.1 nM
16,B16,> 2300 nM

row,Binder,Kd
1,B17,9.98 nM
2,B18,10.4 nM
3,B19,> 2300 nM
4,B20,0.615 nM
5,B21,18.2 nM
6,B22,> 2300 nM
7,B23,12.2 nM
8,B24,14.5 nM
9,B25,18.9 nM
10,B26,91.3 nM
11,B27,27.8 nM
12,B28,25 nM
13,B29,1.27 nM
14,B30,18.5 nM
15,B31,27.1 nM
